In PMC4876393, “Structure of the Dictyostelium Myosin-II Heavy Chain Kinase A (MHCK-A) α-kinase domain apoenzyme reveals a novel autoinhibited conformation” (Scientific Reports, 2016):
Non-standard residues stand in square brackets, D forms with d. No end group written: not given here. pT = C[C@@H](OP(=O)(O)O)[C@H](N)C(=O)O

Assays:
[1] = test system: T1, Nc1ncnc2c1ncn2[C@@H]1O[C@H](COP(=O)(O)OP(=O)(O)OP(=O)(O)O)[C@@H](O)[C@H]1O; experiment: ATPase assay by inorganic phosphate release (Pi ColorLock Gold) at 22 °C in 2 mM MgCl2, 1 mM dithiothreitol, 20 mM TES, pH 7.0.; format: biochemical
T1 construct: A-CAT: alpha-kinase domain and Thr825 autophosphorylation site of MHCK-A; expressed in E. coli
Description: (§1) Assays were carried out at 22 °C in a buffer containing 2 mM MgCl2, 1 mM dithiothreitol and 20 mM TES, pH 7.0. Kinase assays contained 20 μM myelin basic protein (MBP), 0.5–2 μM A-CAT and 200 μM [γ-^32P]ATP (specific activity 100 cpm/pmol). At each time point, 20 μl aliquots of the reaction mixture were spotted onto squares of Whatman P81 phosphocellulose paper, which were then washed 1% phosphoric acid, immersed in ScintiVerse Universal LS Mixture (Fisher Scientific), and counted using a Beckman LS 9000 scintillation counter. Assays to measure A-CAT-Δ809 activity in the presence of the QQG(p)TMVMPD and QQG(p)TMSMPD peptides were carried out as described. ATPase activity was assayed using 250 μM ATP and release of inorganic phosphate (Pi) was measured using the Pi ColorLock Gold phosphate detection system (Innova Biosciences). Data from the initial linear portion of the time courses were used to calculate kinase and ATPase activity. Nucleotide binding assays using mant-ATP and mant-ADP were carried out as previously described. Results represent the mean and standard deviation of at least 3 separate experiments.

[2] = test system: T1, Nc1ncnc2c1ncn2[C@@H]1O[C@H](COP(=O)(O)OP(=O)(O)OP(=O)(O)O)[C@@H](O)[C@H]1O; experiment: Radiometric kinase assay with [γ-32P]ATP and 20 μM myelin basic protein as phosphate acceptor (P81 paper) at 22 °C in 2 mM MgCl2, 1 mM dithiothreitol, 20 mM TES, pH 7.0.; format: biochemical
Description: as §1

[3] = test system: T2, Nc1ncnc2c1ncn2[C@@H]1O[C@H](COP(=O)(O)OP(=O)(O)OP(=O)(O)O)[C@@H](O)[C@H]1O; experiment: ATPase assay by inorganic phosphate release (Pi ColorLock Gold) at 22 °C in 2 mM MgCl2, 1 mM dithiothreitol, 20 mM TES, pH 7.0.; format: biochemical
T2 construct: A-CAT: alpha-kinase domain and Thr825 autophosphorylation site of MHCK-A
Description: as §1

[4] = test system: T2, Nc1ncnc2c1ncn2[C@@H]1O[C@H](COP(=O)(O)OP(=O)(O)OP(=O)(O)O)[C@@H](O)[C@H]1O; experiment: Radiometric kinase assay with [γ-32P]ATP and 20 μM myelin basic protein as phosphate acceptor (P81 paper) at 22 °C in 2 mM MgCl2, 1 mM dithiothreitol, 20 mM TES, pH 7.0.; format: biochemical
Description: as §1

[5] = biological target: A-CAT-Δ809, truncated A-CAT that lacks the activating Thr825 site of autophosphorylation (Dictyostelium)
[6] = substrate: Nc1ncnc2c1ncn2[C@@H]1O[C@H](COP(=O)(O)OP(=O)(O)OP(=O)(O)O)[C@@H](O)[C@H]1O; experiment: ATPase assay by inorganic phosphate release (Pi ColorLock Gold) at 22 °C in 2 mM MgCl2, 1 mM dithiothreitol, 20 mM TES, pH 7.0.; format: biochemical
Description: as §1

[7] = substrate: Nc1ncnc2c1ncn2[C@@H]1O[C@H](COP(=O)(O)OP(=O)(O)OP(=O)(O)O)[C@@H](O)[C@H]1O; experiment: Radiometric kinase assay with [γ-32P]ATP and 20 μM myelin basic protein as phosphate acceptor (P81 paper) at 22 °C in 2 mM MgCl2, 1 mM dithiothreitol, 20 mM TES, pH 7.0.; format: biochemical
Description: as §1

[8] = test system: myelin basic protein (MBP); experiment: Kinase activity of A-CAT and mutants towards myelin basic protein; format: biochemical; details: 20 μM MBP, 0.5–2 μM A-CAT, [γ-^32P]ATP; 22 °C, pH 7.0; mean and standard deviation of at least 3 separate experiments
Description: as §1

[9] = ATPase activity of A-CAT and mutants (phosphate release); format: biochemical; details: 22 °C, 2 mM MgCl2, 20 mM TES, pH 7.0; Pi ColorLock Gold phosphate detection; mean and standard deviation of at least 3 separate experiments
Description: as §1

Question: With D663A (Dictyostelium discoideum; D663A) as the molecule, how does the Km [1] read?
Answer: 21 ± 5 µM

Question: And the kcat [1]?
Answer: 0.0167 ± 0.00333 s⁻¹

Question: And the Km [2]?
Answer: 54 ± 25 µM

Question: And the kcat [2]?
Answer: 0.00105 ± 0.000117 s⁻¹

Question: For D663S (Dictyostelium discoideum; D663S), which Km [3] is on record?
Answer: 31 ± 7 µM

Question: What about the kcat [3] of the same molecule?
Answer: 0.00733 ± 0.00267 s⁻¹

Question: What about the Km [4] of the same molecule?
Answer: 29 ± 16 µM

Question: And the kcat [4]?
Answer: 0.00103 ± 0.000117 s⁻¹

Question: For Y647A (Dictyostelium discoideum; Y647A), which kcat [3] is on record?
Answer: 0.00483 ± 0.00117 s⁻¹

Question: What about the Km [4] of the same molecule?
Answer: 162 ± 38 µM

Question: What about the kcat [4] of the same molecule?
Answer: 0.00367 ± 0.000333 s⁻¹

Question: Which Km [3] does the source give for Y647F (Dictyostelium discoideum; Y647F) here?
Answer: 64 ± 2 µM

Question: And the kcat [3]?
Answer: 0.00633 ± 0.00117 s⁻¹

Question: What about the Km [4] of the same molecule?
Answer: 65 ± 35 µM

Question: And the kcat [4]?
Answer: 0.00045 ± 0.000117 s⁻¹

Question: For QQG[pT]MSMPD [QQG(p)TMSMPD phosphopeptide], which kinase activity of A-CAT-Δ809 assayed in the presence of the peptide; Kd from a hyperbolic curve fit [5] is on record?
Answer: 98 µM

B1: A-CAT WT (Dictyostelium discoideum) (protein)
chain: ISSETGEMGILWEFDPIINKWIRLSMKLKVERKPFAEGALREAYHTVSLGVGTDENYPLGTTTKLFPPIEMISPISKNNEAMTQLKNGTKFVLKLYKKEAEQQASRELYFEDVKMQMVCRDWGNKFNQKKPPKKIEFLMSWVVELIDRSPSSNGQPILCSIEPLLVGEFKKNNSNYGAVLTNRSTPQAFSHFTYELSNKQMIVVDIQGVDDLYTDPQIHTPDGKGFGLGNLGKAGINKFITTHKCNAVCALLDLDVKLGGVLSGNNKKQLQQGTMVMPDILPELMPSDNT
notes: A-CAT: alpha-kinase domain and Thr825 autophosphorylation site of MHCK-A; expressed in E. coli
Question: For B1, which Km [6] is on record?
Answer: 35 ± 4 µM

Question: And the kcat [6]?
Answer: 0.0317 ± 0.00167 s⁻¹

Question: What about the Km [7] of the same molecule?
Answer: 23 ± 5 µM

Question: What about the kcat [7] of the same molecule?
Answer: 0.0967 ± 0.00667 s⁻¹

B2: WT: α-kinase domain and Thr825 autophosphorylation site of MHCK-A (protein)
chain: B1 chain
modifications: phosphothreonine at 612 (P-Thr612); phosphoaspartate at 663 (P-Asp663)
notes: α-kinase domain and Thr825 autophosphorylation site of MHCK-A
Question: What does the source list for B2?
Answer: Kinase Activity kcat [8]: 0.0967 ± 0.0067 s⁻¹; ATPase Activity kcat [9]: 0.0317 ± 0.0017 s⁻¹

Question: Which kinase activity of A-CAT-Δ809 assayed in the presence of the peptide; Kd from a hyperbolic curve fit [5] does the source give for QQG[pT]MVMPD [QQG(p)TMVMPD phosphopeptide] here?
Answer: 38 µM
